Target: CXCR4 on murine 4T1 breast carcinoma cells (murine) (UniProt P70658)
Experiment: cell-based or functional assay

UniProt P70658, sequence (P70658 whole entry): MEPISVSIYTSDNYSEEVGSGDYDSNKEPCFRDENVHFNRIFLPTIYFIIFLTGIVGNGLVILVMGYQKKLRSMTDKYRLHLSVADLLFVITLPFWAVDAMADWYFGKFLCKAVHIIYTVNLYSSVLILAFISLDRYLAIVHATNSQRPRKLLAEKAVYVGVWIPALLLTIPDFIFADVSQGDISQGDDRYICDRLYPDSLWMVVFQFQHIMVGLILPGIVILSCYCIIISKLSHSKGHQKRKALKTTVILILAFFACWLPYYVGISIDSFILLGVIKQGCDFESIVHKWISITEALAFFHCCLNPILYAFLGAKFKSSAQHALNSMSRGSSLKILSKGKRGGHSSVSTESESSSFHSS

CTCE-9908 peptide
inhibition of migration of 4T1 cells toward SDF1 (1,000 ng/ml), transwell assay, antagonist at 100 µg/ml: > 80%

Source: patent US20130011436A1
